Read-outs that look alike come from different tables or passages of the source.
B1: E. coli acyl carrier protein (ACP) (natural protein, UniProt P0A6A8 1-78, looked up)
chain: MSTIEERVKKIIGEQLGVKQEEVTNNASFVEDLGADSLDTVELVMALEEEFDTEIPDEEAEKITTVQAAIDYINGHQA
modifications: Ser36-linked phosphopantetheine with attached fatty acyl chain (12 carbons modelled; 14 carbons by mass spectrometry of dissolved crystals)
notes: E. coli acyl carrier protein; the acyl chain length is said to depend on the growth medium; also called E. coli ACP; A of (NIA)2; source: endogenous E. coli protein, co-purified with NFS1-ISD11 expressed in E. coli
B2: Chaetomium thermophilum CtIsu1-His6 (natural protein)
chain: MFSKTARAVSSRALASPLWSTAIPVTRPLSCQLAWPQTRQYHEKVLDHYSRPRNVGSLDKTDKSVGEGLVGAPACGDVMRLHIKVDPETKVISDVRFKTFGCGSAIASSSYLTELVRGMTLEQAAQVKNTQIAKELCLPPVKLHCSMLAEDAIKSAINNYYKKNPEARPTNLAGRGNNKLETASQSTQ
B3: Chaetomium thermophilum CtNfs1 (enzyme)
chain: MANLAPSVLRQASRLATRSSSSTSSLFAAAPRRAATLLSRRAAIAPATHAHPSRRASRSYVTDTKADNAQAQTEAAVRLDSQELEKAEKSVPSFEAQNGSTTHVSPMADILKGATRMGEGQRPIYLDMQATTPVDPRVLDAMLPYYVGIFGNPHSRTHAYGWETERAVEKAREHIAALIGADPKEIIFTSGATESNNMSIKGVARFFGRTGKKRHIITSQTEHKCVLDSCRHLQDEGYEVTYLPVNNKGLINLDELRDAIRPDTALVSIMAVNNEIGVIQPIAEIGKICREKKVFFHTDGAQAVGKIPIDVNAMNIDLMSISSHKIYGPKGIGACYVRRRPRVRIEPIISGGGQERGLRSGTLAPALVVGFGEACRIAKEELEYDLKHVKRLSERLLKGVLSIECTHQNGDPENGYPGCVNVSFAYVEGESLLMALNDVALSSGSACTSASLEPSYVLRALGNSDENAHSSIRFGIGRFTTEAEIDYVVKAVQDRVGFLRELSPLWELVQEGVDLNTIEWTQH

How the values were obtained:
[1] = target: B3; test: SAXS; complexes of NFS1 with ISCU, FDX2 (reduced with dithionite) and/or frataxin mixed in 1:1, 1:1:1 ratios in buffer S1 in an anaerobic chamber, after size exclusion chromatography; rigid body modelling
[2] = target: human NFS1 of the NFS1-ISD11(-His10) complex for biochemistry and SAXS (human); test: SAXS; (NIA)2 complexes incubated with cysteine (buffer S1 with 5 mM Cys: 35 mM Tris-HCl pH 7.4, 150 mM NaCl), after size exclusion chromatography
[3] = target: T1, human ISD11, full length, no tag (human, UniProt Q9HD34 1-91); test: crystal structure; (NIA)2 complex, 2.75 Å, space group R32; crystals from 100 mM MES pH 6.5, 0.3 M ammonium acetate, 20 mM calcium acetate, 20 mM CaCl2, 19% isopropanol, 12 °C; details: both partners purified
T1 construct: human ISD11 (LYRM4), full length, plasmid pZM4; also called LYRM4; I of (NIA)2 and (NIAU)2; source: E. coli One Shot BL21 Star (DE3), co-expressed with NFS1, co-purified (Ni-NTA)

human ISD11-His10 = target: T2, human ISD11-His10 (human, UniProt Q9HD34 1-91); test: affinity purification with mass spectrometry; NFS1-ISD11(-His10) purified by Ni-Sepharose and gel filtration from E. coli grown in TB (energy-rich) medium; Orbitrap mass spectrometry of the trypsin-digested purified solution; details: partners not purified
T2 construct: human ISD11 (LYRM4); source: E. coli, co-expressed with NFS1, purified (Ni-Sepharose, gel filtration)

[4] = target: the molecule itself; test: SAXS; (NIA)2 complexes incubated with cysteine (buffer S1 with 5 mM Cys: 35 mM Tris-HCl pH 7.4, 150 mM NaCl), after size exclusion chromatography

T2 sequence (Q9HD34 whole entry): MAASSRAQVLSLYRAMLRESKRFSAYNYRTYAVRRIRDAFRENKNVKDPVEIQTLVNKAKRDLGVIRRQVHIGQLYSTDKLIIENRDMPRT
T1 sequence (Q9HD34 whole entry): as above

Molecule “Chaetomium thermophilum CtFdx2 (reduced ferredoxin) (natural protein)” has a stoichiometry N [1] of 1.

For “human NFS1 of the NFS1-ISD11(-His10) complex for biochemistry and SAXS (enzyme)”, the stoichiometry N [2] was 2.

B1: binds [3]; binds (human ISD11-His10).

With B2 the “stoichiometry N” value ([1]; both partners purified) was 1.

With B3 the “stoichiometry N” value [4] was 2.
